Experimental data taken from publication PMC9871958 (Protein & Cell, 2022).
Residue numbers refer to the chain shown, from its start.

B1: 1F mutated at R102 (antibody, V domains shown)
VH: EVQLVESGPGLVKPSETLSLTCTVSGGSISSSSYYWGWIRQPPGKGLEWIGSIYYRGSTYYNPSLKSRVTISVDTSKNQFSLKLSSVTAADTAVYYCARHVASAYYYGSGSYRDEGNWFDPWGQGTLVTVSS
VL: QSVLTQPPSVSGAPGQRVTISCTGTRSNIGAGHDVHWYQQLPGTAPKLLIYGNNNRPSGVPDRFSGAKSGTSASLAITGLQAEDEADYYCQSYDRTLTSYVFGTGTKVTVL
notes: also called mutated 1F (R102)
B2: 1F mutated at D114 (antibody, V domains shown)
VH: B1 VH with A102R, D114A
VL: B1 VL
notes: also called mutated 1F (D114)

Biological target: SARS-CoV-2 RBD protein (SARS-CoV-2, UniProt P0DTC2)
Assay: ELISA
Settings: both partners purified

Binder	binding result
B1	no binding
B2	no binding
